How the values were obtained:
unc5b_rat Unc5b = unc5b_rat Unc5b (UniProt O08722)
unc5b_rat Unc5b, sequence (O08722 whole entry): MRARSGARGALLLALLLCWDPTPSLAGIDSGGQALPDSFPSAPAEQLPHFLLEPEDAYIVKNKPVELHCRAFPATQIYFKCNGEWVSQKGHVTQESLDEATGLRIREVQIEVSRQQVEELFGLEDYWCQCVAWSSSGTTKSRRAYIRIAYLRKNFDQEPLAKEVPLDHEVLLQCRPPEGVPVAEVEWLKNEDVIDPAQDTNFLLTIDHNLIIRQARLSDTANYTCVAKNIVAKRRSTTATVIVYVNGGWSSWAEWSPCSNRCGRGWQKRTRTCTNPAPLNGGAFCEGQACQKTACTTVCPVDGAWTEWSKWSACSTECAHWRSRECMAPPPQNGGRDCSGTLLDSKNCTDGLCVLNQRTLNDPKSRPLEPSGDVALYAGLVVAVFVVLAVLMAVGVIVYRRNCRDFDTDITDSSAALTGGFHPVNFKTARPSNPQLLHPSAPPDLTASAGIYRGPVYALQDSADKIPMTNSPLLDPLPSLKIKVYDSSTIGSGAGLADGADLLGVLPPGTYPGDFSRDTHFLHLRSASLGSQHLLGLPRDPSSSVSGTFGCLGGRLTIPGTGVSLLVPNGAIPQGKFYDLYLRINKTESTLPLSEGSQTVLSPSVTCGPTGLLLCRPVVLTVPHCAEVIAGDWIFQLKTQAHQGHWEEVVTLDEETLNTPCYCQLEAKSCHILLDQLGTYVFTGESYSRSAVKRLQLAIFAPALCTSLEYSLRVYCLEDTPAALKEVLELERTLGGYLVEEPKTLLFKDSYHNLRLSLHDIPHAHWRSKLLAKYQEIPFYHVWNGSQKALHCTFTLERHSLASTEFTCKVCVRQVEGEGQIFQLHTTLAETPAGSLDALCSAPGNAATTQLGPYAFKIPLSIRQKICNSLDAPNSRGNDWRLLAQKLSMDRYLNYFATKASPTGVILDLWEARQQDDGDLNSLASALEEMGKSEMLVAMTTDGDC

Unc5b, Q8K1S3-1, sequence (Q8K1S3 whole entry): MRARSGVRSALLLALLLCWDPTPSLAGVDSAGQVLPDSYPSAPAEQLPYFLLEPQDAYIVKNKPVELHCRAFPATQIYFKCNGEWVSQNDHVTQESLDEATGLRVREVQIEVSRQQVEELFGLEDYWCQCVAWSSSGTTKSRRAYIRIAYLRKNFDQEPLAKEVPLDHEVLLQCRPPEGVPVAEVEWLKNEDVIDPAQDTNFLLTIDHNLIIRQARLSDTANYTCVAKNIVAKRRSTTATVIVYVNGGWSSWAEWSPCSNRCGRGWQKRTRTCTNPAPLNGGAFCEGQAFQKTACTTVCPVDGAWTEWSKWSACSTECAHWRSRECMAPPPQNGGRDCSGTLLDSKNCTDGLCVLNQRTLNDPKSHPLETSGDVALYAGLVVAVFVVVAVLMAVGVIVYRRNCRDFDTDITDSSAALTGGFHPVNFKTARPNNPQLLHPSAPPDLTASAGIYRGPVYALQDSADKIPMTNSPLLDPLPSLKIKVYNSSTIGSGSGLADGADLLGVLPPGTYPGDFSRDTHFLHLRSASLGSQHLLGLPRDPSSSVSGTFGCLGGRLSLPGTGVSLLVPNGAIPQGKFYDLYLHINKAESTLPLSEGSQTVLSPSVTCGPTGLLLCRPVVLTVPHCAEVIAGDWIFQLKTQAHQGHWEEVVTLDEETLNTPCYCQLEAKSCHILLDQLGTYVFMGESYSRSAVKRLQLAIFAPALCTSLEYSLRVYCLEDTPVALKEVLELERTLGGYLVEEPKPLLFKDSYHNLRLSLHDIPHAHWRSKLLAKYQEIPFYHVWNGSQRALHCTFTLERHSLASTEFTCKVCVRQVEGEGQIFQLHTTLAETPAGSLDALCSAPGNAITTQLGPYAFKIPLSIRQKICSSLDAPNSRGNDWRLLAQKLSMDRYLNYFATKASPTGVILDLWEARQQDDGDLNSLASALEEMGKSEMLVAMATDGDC

| effect of a mutation on the interaction (Unc5b, Q8K1S3-1) | effect of a mutation on the interaction (unc5b_rat Unc5b) | Substance |
| --- | --- | --- |
| decreasing interaction strength |  | Netrin-1 (Mus musculus) (from UniProt O09118) R351A;N353A |
|  | decreasing interaction strength | Netrin-1 (Homo sapiens) (from UniProt O95631) N353A |
|  | with no effect | Netrin-1 (Homo sapiens) (from UniProt O95631) Y357F |
| disrupting interaction strength |  | Netrin-1 (Mus musculus) (from UniProt O09118) R348A;R349A |
|  | decreasing interaction strength | Netrin-1 (Homo sapiens) (from UniProt O95631) S360A |
|  | decreasing interaction strength | Netrin-1 (Homo sapiens) (from UniProt O95631) K358L |
|  | decreasing interaction strength | Netrin-1 (Homo sapiens) (from UniProt O95631) R348A;R349A;R351A |
|  | with no effect | Netrin-1 (Homo sapiens) (from UniProt O95631) R348W |

From IntAct's records for PubMed 26859457
